Laboratory results: patent US7049398B1, “Melanocortin metallopeptide constructs, combinatorial libraries and applications” (Palatin Technologies, Inc., priority 1999, dated 2006)
Where no end group is shown, it is not given here. [ ]: non-standard residue; d: D form. The star is where a group is joined. Phe(2,4-Cl2) = N[C@@H](Cc1ccc(Cl)cc1Cl)C(=O)O; Phe(2-Cl) = N[C@@H](Cc1ccccc1Cl)C(=O)O; Phe(4-F) = N[C@@H](Cc1ccc(F)cc1)C(=O)O; 2Nal = N[C@@H](Cc1ccc2ccccc2c1)C(=O)O; Hydrocinnamoyl = O=C(CCc1ccccc1)*; hPhe = N[C@@H](CCc1ccccc1)C(=O)O; Phg = N[C@H](C(=O)O)c1ccccc1; Tle = CC(C)(C)[C@H](N)C(=O)O; Heptanoyl = CCCCCCC(=O)*; Nle = CCCC[C@H](N)C(=O)O; Tfa = O=C(C(F)(F)F)*; Bn = c1ccc(C*)cc1; βAla = NCCC(=O)O

Columns and labels:
hMC4-R = biological target: T1, hMC4-R (Homo sapiens, UniProt P32245); test: Competitive inhibition binding assay, 125I-NDP-alpha-MSH, hMC4-R membranes; conditions: 0.4 nM 125I-NDP-alpha-MSH, hMC4-R membranes
T1 construct: expressed in transfected cells; host or cells: 293 cells
Method: (§1) Representative Peptides of this Invention. Representative peptides of this invention were made using library and synthesis methods described herein, and selected peptides were tested using a binding assay. […] The peptides were synthesized using conventional peptide synthesis methods, and were complexed with rhenium using the methods described herein.
(§2) The competitive inhibition binding assay was conducted using membranes prepared from hMC4-R and B-16 mouse melanoma cells (containing MC1-R) using 0.4 nM ^125I-NDP-alpha-MSH (New England Nuclear, Boston, Mass., USA) in 50 mM HEPES buffer containing 1 mM MgCl2, 2 mM CaCl2, and 5 mM KCl, at pH 7.2. The assay tube also contained a chosen concentration of the test peptide of this invention, complexed to a rhenium metal ion as indicated, for determining its efficacy in inhibiting the binding of ^125I-NDP-alpha-MSH to its receptor. Non-specific binding was measured by complete inhibition of binding of ^125I-NDP-alpha-MSH in the assay with the presence of 1 μM alpha-MSH. Incubation was for 90 minutes at room temperature, after which the assay mixture was filtered and the membranes washed three times with ice cold buffer. The filter was dried and counted in a gamma counter for remaining radioactivity bound to the membranes. 100% specific binding was defined as the difference in radioactivity (cpm) bound to cell membranes in the absence and presence of 1 μM alpha-MSH. The cpm obtained in presence of test compounds were normalized with respect to 100% specific binding to determine the percent inhibition of ^125I-NDP-alpha MSH binding. […]

[1] = biological target: T2, MC1-R (B-16 mouse melanoma cells) (Mus musculus, UniProt Q01727); test: Competitive inhibition binding assay, 125I-NDP-alpha-MSH, B-16 mouse melanoma cell membranes; conditions: 0.4 nM 125I-NDP-alpha-MSH, B-16 mouse melanoma cell membranes
T2 construct: B-16 mouse melanoma cells (containing MC1-R); endogenous in cells; host or cells: B-16 mouse melanoma cells
Method: as §1, §2

T2 sequence (Q01727 whole entry): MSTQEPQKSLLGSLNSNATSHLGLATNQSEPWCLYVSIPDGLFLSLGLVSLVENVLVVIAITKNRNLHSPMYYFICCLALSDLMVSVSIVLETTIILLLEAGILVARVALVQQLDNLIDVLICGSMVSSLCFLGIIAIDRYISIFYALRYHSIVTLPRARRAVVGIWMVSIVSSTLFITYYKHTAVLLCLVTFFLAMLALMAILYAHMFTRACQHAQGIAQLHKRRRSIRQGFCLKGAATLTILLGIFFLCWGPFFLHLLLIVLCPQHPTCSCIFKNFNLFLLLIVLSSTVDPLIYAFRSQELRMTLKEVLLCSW
T1 sequence (P32245 whole entry): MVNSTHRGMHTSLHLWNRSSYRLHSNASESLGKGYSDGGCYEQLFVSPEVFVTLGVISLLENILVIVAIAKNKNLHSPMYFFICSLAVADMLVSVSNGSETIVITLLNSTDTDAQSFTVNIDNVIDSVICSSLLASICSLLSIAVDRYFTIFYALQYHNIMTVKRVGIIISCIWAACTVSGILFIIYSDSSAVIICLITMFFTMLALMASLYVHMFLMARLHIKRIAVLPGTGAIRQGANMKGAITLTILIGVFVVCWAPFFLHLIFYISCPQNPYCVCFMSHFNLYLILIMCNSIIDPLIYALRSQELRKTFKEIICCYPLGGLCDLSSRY

Substance | % Inhibition MC4-R (hMC4-R; Conc. cut off 1 μM) | % Inhibition MC1-R (B-16) ([1]; Conc. cut off 1 μM) | % Inhibition MC4-R (hMC4-R; Conc. cut off 10 μM) | % Inhibition MC1-R (B-16) ([1]; Conc. cut off 10 μM)
PL-811 (Ac-H[Phg]CW-NH2; also: ReO[V] complex) | 0% | −5% | – | –
PL-814 (Ac-HFCW-NH2; also: ReO[V] metal complex) | 0% | −4% | – | –
PL-839 (Ac-HFWC-NH2; also: ReO[V] metal complex) | – | – | 9% | 12%
PL-844 (Ac-FGCW-NH2; also: ReO[V] metal complex) | – | – | 2% | 10%
PL-847 (Ac-FHGCW-NH2; also: ReO[V] metal complex) | – | – | 6% | −6%
PL-1073 (Ac-A[Tle]CW-NH2; also: ReO complex) | 13% | −6% | – | –
PL-1089 (Ac-A[Phe(4-F)]CW-NH2; also: ReO complex) | – | – | 10% | 0%
PL-1090 (Ac-AXCW-NH2; not fully specified (residue 2); printed as Ac-L-Ala-L-Tyr(3′,5′ di-I, 4′-Ac)-L-Cys-L-Trp-NH2; also: ReO[V] metal complex) | 10% | 2% | – | –
PL-1091 ([βAla]GC(Bn)CW-NH2; also: ReO complex) | 13% | −1% | – | –
PL-1092 ([βAla]GK(Tfa)CW-NH2; also: ReO complex) | 4% | 4% | – | –
PL-1094 ([βAla]G[Phe(2-Cl)]CW-NH2; also: ReO complex) | – | – | 19% | 57%
PL-1095 ([βAla]G[Lys(Z)]CW-NH2; also: ReO complex) | – | – | 8% | 3%
PL-1096 ([βAla]GLCW-NH2; also: ReO complex) | – | – | 12% | 6%
PL-1110 (KHFCW-NH2; also: ReO complex) | – | – | 36% | 11%
PL-1114 ([βAla]HFCW-NH2; also: ReO[V] metal complex) | – | – | 10% | 2%
PL-1309 (Heptanoyl-CRCW-NH2; cysteine pairing not given here; also: ReO[V] metal complex) | 10% | 9% | – | –
PL-1315 (Ac-RW[Nle]CF-NH2; also: ReO[V] metal complex) | – | – | 70% | 69%
PL-1320 (Hydrocinnamoyl-RWC[Nle]-NH2; also: ReO[V] metal complex) | – | – | 94% | 96%

Further lines, results first:

% Inhibition MC4-R (hMC4-R; Conc. cut off 1 μM) | % Inhibition MC1-R (B-16) ([1]; Conc. cut off 1 μM) | % Inhibition MC4-R (hMC4-R; Conc. cut off 10 μM) | % Inhibition MC1-R (B-16) ([1]; Conc. cut off 10 μM) | Substance
0% | −3% | – | – | PL-808 (Ac-HWCW-NH2; also: ReO[V] metal complex)
0% | −4% | – | – | PL-809 (Ac-H[hPhe]CW-NH2; also: ReO[V] complex)
−1% | −2% | – | – | PL-810 (Ac-H[2Nal]CW-NH2; also: ReO[V] complex)
2% | 2% | – | – | PL-1093 ([βAla]G[Phe(2,4-Cl2)]CW-NH2; also: ReO complex)
– | – | 8% | 0% | PL-1112 (HFCW-NH2; also: ReO complex)
19% | 1% | – | – | PL-1299 (Heptanoyl-[βAla]RCW-NH2; also: ReO[V] metal complex)
22% | 62% | – | – | PL-1300 (Heptanoyl-ARCW-NH2; also: ReO[V] metal complex)
12% | 26% | – | – | PL-1334 (Hydrocinnamoyl-[Nle]WCR-NH2; also: ReO[V] metal complex)
– | – | 81% | 89% | PL-1344 (Heptanoyl-RFHCW-NH2; also: ReO[V] metal complex)
